Assay results reported in the DeepSol protein solubility set.

Assay: soluble on expression in E. coli; label from the status in PepcDB or PDB records

Sequence	soluble on expression in E. coli
MQKSYGVALESPTGSGKTIMALKSALQYSSERKLKVLYLVRTNSQEEQVIKELRSLSSTMKIRAIPMQGRVNMCILYRMVDDLHEINAESLAKFCNMKKREVMAGNEAACPYFNFKIRSDETKRFLFDELPTAEEFYDYGERNNVCPYESMKAALPDADIVIAPYAYFLNRSVAEKFLSHWGVSRNQIVIILDEAHNLPDIGRSIGSFRISVESLNRADREAQAYGDPELSQKIHVSDLIEMIRSALQSMVSERCGKGDVRIRFQEFMEYMRIMNKRSEREIRSLLNYLYLFGEYVENEKEKVGKVPFSYCSSVASRIIAFSDQDEEKYAAILSPEDGGYMQAACLDPSGILEVLKESKTIHMSGTLDPFDFYSDITGFEIPFKKIGEIFPPENRYIAYYDGVSSKYDTLDEKELDRMATVIEDIILKVKKNTIVYFPSYSLMDRVENRVSFEHMKEYRGIDQKELYSMLKKFRRDHGTIFAVSGGRLSEGINFPGNELEMIILAGLPFPRPDAINRSLFDYYERKYGKGWEYSVVYPTAIKIRQEIGRLIRSAEDTGACVILDKRAGQFRKFIPDMKKTSDPASDIYNFFISAQAREKYGA	soluble
MVHSTDSFDFLGWNFVVKPNGKFISTPSQKATSSIKAKVKEVMKDSCFTLEERIDKCGAIVRGWRNYHRFCDMSQHNLWAIAYWTWKFIRKQGRYNRDQTNQVIHRAFPAVKWAACRFNNVTEDKSPLEHHHHHH	not soluble
MVKIVKAQFHTAGKLYDFGAGDLDLKPGDKIIVETERGRSIATVVTPPREYEEAHVPEGLKTAIRIAEPSDLASAARNDAREQEAHAFCLRKIKERGMEMKLVKVEYLFDGSKAIFYFTADGRVDFRELVKDLAHQFHTRIEMRQIGVRDESKMIGGIGICGRELCCSSFLREFEPVSVKMAKEQNLALNPTKISGQCGRLLCCLGYEYETYCSLKKCLPKCGKVVKCGSTEGEVIKQNIIEGTVFVKTDDDRIVELKGESIKPEDISERPKSPRREGGTREREKEPQSSSDNQRREKPRDREQKPGDDGEQRRERDTKKNQDQQRGERGNRDRRGGKGRDKDKKEPKLEHHHHHH	soluble
MGSDKIHHHHHHALPDPVKPKAPKAVNPFHLGMAGYTFVNFDLDTTLKTLERLDIHYLCIKDFHLPLNSTDEQIRAFHDKCAAHKVTGYAVGPIYMKSEEEIDRAFDYAKRVGVKLIVGVPNYELLPYVDKKVKEYDFHYAIHLHGPDIKTYPDATDVWVHTKDLDPRIGMCLDVGHDLRNGCDPVADLKKYHTRVFDMHIKDVTDSSKAGVGIEIGRGKIDFPALIRMMREVNYTGMCSLEYEKDMKDPFLGIAESIGYFKAVSDLT	not soluble
MTAPLIRVSRKRTADPHDALILHTKRAKHGGNPLVFTLYKAAGNDLELNGARVLDLPTQEHGMELADEENPLGFVKDEAVGLVGEVEKNVKKPAEQVSLNGRLLQPVTDGGGAAAGSSDDVVYDYYAIHEKRGNPEVVGNLEQDIEGADFRFAKRDELDLGDEDDSDGPPADDEDDSNDEDNWRNDYPDEESYDEDSDNGDPYGISEPDHWHAGEEAYSDESFHRRLQNMDLNDERYEAFYEGDETDEDAD	soluble
MSLKKIGIIGAGGIARAHATALSTIKNAELVGVYDINQQNAESFVKTFGGKSFENVDELIDASEGLIVASPNFCHKEHALQALGKHKHVLCEKPMAISLEEASIMKDTAERLSVRASMGFNYRYLSYVNILKSLIINNELGNILSIKVHFKKNSALRRKKFTWRDDANSKKTSGSLGDLGIHLIDMVWYLFESDFITESVRAKMNTNVKTKEDKQVLVDDYAEIYGQLRNKVFVNIITSKCSVPEDCGFSIEVVGHKKEFKYHTGNPHVYKLIDGLNVVDCPVPQSLLNDPPNEFYGWADSFRSELINWIASTQNDWVEIPSFSDGFRSQEVLEMFFEKDSNSQPMSVSAVNEGHHHHHH	soluble
MGSDKIHHHHHHMTDNQLLMQEALEWKMHFLRKDSMFERFSKRVQTKVNERIPEKIHTVVTESVKKMVEATMAGSNIITYKKDTSALSLSEKNELAKKTIVSYQKVAAAEGVGTGAGGIFLSIADFPLLLSIKMKCLFTLSSIYGFDVKDAQERIFLLLVFQLAFSSDDGRKSLFSVIENWETEKKSIDWRVFQQEYRDYIDVVKLFQLLPGVGAAVGGIANYKLLAQLGETARHVFHLRILKETAGE	not soluble
MAHHHHHHMNTDERYKLLRSVGEECIQESELRNLIEKKPLIRCYDGFEPSGRMHIAQGIFKAVNVNKCTAAGCEFVFWVADWFALMNDKVGGELEKIRIVGRYLIEVWKAAGMDMDKVLFLWSSEEITSHADTYWRMVLDIGRQNTIARIKKCCTIMGKTEGTLTAAQVLYPLMQCCDIFFLKADICQLGLDQRKVNMLAREYCDLIGRKLKPVILSHHMLAGLKQGQAKMSKSDPDSAIFMEDTEEDVARKIRQAYCPRVKQSASAITDDGAPVATDDRNPVLDYFQCVVYARPGAAATIDGTTYATYEDLEQAFVSDEVSEDALKSCLIDEVNALLEPVRQHFASNEEAHELLEAVKSYRKDGATLPLAETALPAAPAKPHACMWMPALLKVPLDVAEGMIKVTKDFIAAHPEGTVTLVLPDWSAVASDEITGVEKDISAALQVNCALLKAYGLPSSVKIVTENEVILGNCDDFWVSVIGIARKNLLSHVEELYGGEVRNAGQVIAALMRVATALMLSVSHVISTSLDGHINAFAREYTKERIDCVQTLEGRIPALHRPGAAPAVLGADDVLYLDDNDMDIRRKIKKAYSAPNEEANPVISVAQHLLAQHGALSIERGEANGGNVSYNTPEALVADCGSGALHPADLKAAVLQLLLDRSAQARALLNGELKKNMTVLRNAEKKMAKKR	soluble
MSEAIGLIETVGLVAAIEAADAAVKAANVKLIGYELARGSGLTTVKIKGDVGAVKAAVEAGKAAALRVGKVYAVHIIPRPDKQVGFIVGEEKNLTLLMPVIEKEEKEKNDSEPKIKVTEGETIEKREIEQKFEKEDKSEAKEETGEVEEEDDKEGMAYTCNLCKDPGCPRKKGEPRTLCIHYNELKMR	not soluble
MGSDKIHHHHHHMSKSLIRIAPGALTIGKPLPWDVFDSEGNILLRQGYVIQTNSQLEQLFERGRFKPRKIERPKEETFEDLRQRNPFAEYGDLLTTLEVTLNAITSEDPTAQKRLLGLCRMLDKTCQEAPDASLALVHLYSISPTIHEQILFYGILCHFIARQFGLEEKRATVLTAAALTANLALVPVADQLNASNTVLTDDQRAVIRKHPARSIQALTSAGINNKLLLRIIAQHHEQADGSGYPEGLSGSDILPEAEILALAERYVAMITKRAYRNRMNITEARKLIATLADGKFRPAIPRSLLQVLGDHPPGMLVRLVNNEVGVVTRRADRTRGPFVKAIFGPRGNRYNGTFERDTSLLEYNVRAPEEPEIMPSMDFSMLWGFRS	not soluble
MDPTLYCVVAVDTKLGIGKNRCLPWPALRGDMRRFRQLTTDCAPGKQNMVVMGRRTWLSIPAGCRPLAGRINVVLSRTLETPPPGAHFLASSLDAALGLARSPELAQQIDKVWVIGGGDLYREALTGPWPVRLFLTRVLHDFACDVFLSHDSLAAYARVNPKPGEQERVFQERGIFYMFETYIKVTQSSDTALPDLERPRPATPPFSETS	soluble
MSTFSFIIVNNEQVRIHDIQGKSHMSPYNGKKVNNVEGVVTALDKNGFYIEDNQPDNDPATSEGMYVYKKDANVAVGDLIQVDGVVEEYVGPGYAERFETDLTTTEIKASRVVVIAKDQSLPAPIVLGENGVKIPDQIIDNDAFGLFDPNEDAIDFYESIEGMRVTMPTPKVIAPQKNGNLYVTVKNGGDKIVTQYGTPLLDENQLNPERLSVKVPRDYVAKVGDTFTGDITGVVGYDYGSFRISPITELPAVVDGGFKQVGANIQPRLDKLTVATYNIENFSANKKETTDEKVKALAYSIKYNLKMPDIIGVEEMQDNNGLEHHHHHH	soluble
